The values below come from US20220220215A1 (CRESCENDO BIOLOGICS, published 2022).

In assay [1] the target is T1, human CD137 expressed on CHO cells (human, UniProt Q07011 18-255).
T1 construct: also called CHO huCD137; CHO human CD137 cells
Description: FMAT/Mirrorball on CHO huCD137 cells. The method in brief: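 His-tagged VH molecules bound to CHO cells expressing human PD-1 or human CD137, with CHO parent cells as control, in PBS pH 7.4, 0.1% BSA, 0.05% sodium azide. Read by FMAT on Mirrorball (ex 488/640 nm); binding taken as FL2 median fluorescence intensity of FL5-gated events.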

Assay [2] has as its target T2, human PD-1 expressed on CHO cells (human, UniProt Q15116 21-288).
T2 construct: also called CHO huPD1; CHO human PD1 cells
Description: flow cytometry on CHO huPD1 cells.

For assay [3], the target named is T2, human PD-1 expressed on CHO cells. Description: FMAT/Mirrorball on CHO huPD1 cells. As for the experimental part:
Binding of His-tagged molecules to CHO human CD137, CHO parent and CHO human PD1 cells was assessed using Fluorescence Microvolume Assay Technology (FMAT). All reagents were prepared in FMAT assay buffer (pH 7.4) containing PBS, 0.1% Bovine Serum Albumin, 0.05% Sodium Azide. […] Fluorescence emission was then measured on the TTP Mirrorball plate reader in the FL2 (502 nm-537 nm) and FL5 (677-800 nm) channels following excitation at 488 nm and 640 nm. Data was gated on FL5 perimeter and peak intensity and the FL2 median mean fluorescence intensity of the gated data used for determination of VH binding. Monovalent CD137 specific Humabody® VH, and trispecific molecules with a CD137 binding arm bound to CHO CD137 expressing cells. Trispecific Humabody® VH, with a PD1 binding arm bound to PD1 expressing cells.

In assay [4] the target is T3, recombinant Fc-tagged ectodomain of cynomolgus CD137 (R&D S9324-4b) (cynomolgus macaque, UniProt A9YYE7 24-186).
T3 construct: Bought protein; also called Cyno CD137; cynomolgus macaque CD137; not shown: Fc tag and any linker to it
Description: SPR, Biacore 8K, single-cycle kinetics; Fc-tagged ectodomain captured on Protein G chip; 1:1 model. A digest of the protocol:
(§1)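 Single-cycle kinetics: Humabody VH constructs injected 90 s at low to high nanomolar concentrations over captured Fc-tagged ectodomains. Surface regenerated with 10 mM glycine pH 1.5. Kinetics fitted to a 1:1 binding model, including two-PD-1-arm constructs.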

The target in assay [5] is T4, recombinant Fc-tagged ectodomain of cynomolgus PD1 (Acro Biosystems PD1-C5254) (cynomolgus macaque, UniProt B0LAJ3 25-170).
T4 construct: Bought protein; also called Cyno PD1; cynomolgus macaque PD1; not shown: Fc tag and any linker to it
Described as above. The method in brief:
as §1

In assay [6] the target is T5, recombinant Fc-tagged ectodomain of human PD1 (Acro Biosystems PD1-H5257) (human, UniProt Q15116 25-170).
T5 construct: Bought protein; not shown: Fc tag
The description is as above. A digest of the protocol: as §1

Assay [7] deals with T6, recombinant Fc-tagged ectodomain of human CD137 (Acro Biosystems 41B-H5258) (human, UniProt Q07011 24-186).
T6 construct: Bought protein; not shown: Fc tag
The description is as above. The method in brief: as §1

Assay [8] has as its target human CD137 expressed on cells (Jurkat human CD137 NF-kB luciferase reporter cells; human CD8+ T cells) (human, UniProt Q07011 24-255). Description: cell-based or functional assay.
Assay [9] addresses T7, human CD137-Fc recombinant protein (Acro Biosystems 41B-H5258) (human, UniProt Q07011 24-186).
T7 construct: Bought protein; The Octet paragraph gives no catalogue number for its human CD137-Fc; also called hCD137-Fc; CD137-Fc tagged protein
Description: BLI (Octet RED384), CD137-Fc on Protein G sensor, 1:1 model. How it is done:
(§2) Binding kinetics of purified monovalent VH molecules were measured on a ForteBio Octet RED 384 instrument. Human and Rhesus CD137-Fc tagged protein was diluted to 5 μg/ml in kinetics buffer (0.05% Tween, 1×PBS) and coupled to Protein G biosensors (ForteBio cat no. 18-5082) via the Fc tag. VH were serially diluted (typically 1:2 dilution series starting with 200 nM, VH at the highest concentration) and binding to the CD137-Fc-coupled Protein G biosensors measured. Binding kinetics were determined from the (blank subtracted) sensor gram trace using 1:1 binding models and ForteBio Octet Data Analysis 9.0 software. Example kinetic and binding affinity data obtained is shown Table 18 (monovalent VH).

For assay [10], the target named is T8, Rhesus CD137-Fc tagged protein (rhesus, UniProt H9Z8K9 24-186).
T8 construct: extracellular domain; The Octet paragraph gives no catalogue number; also called rhCD137-Fc
The description is as above. As for the experimental part:
as §2

Assay [11] deals with T1, human CD137 expressed on CHO cells. Description: flow cytometry on CHO huCD137 cells. (Flow cytometry measures light scatter and fluorescence of single cells or particles in a stream.)

B1: TPP-972: CD137A-6GS-PDA-6GS-HSA2-His (bispecific antibody)
chain: EVQLVESGGGLVQPGGSLRLSCAASGFTLSNYWMNWVRQAPGKGLEWVANINQDGSERYYVDSVKGRFTISRDNAKNSLYLQMNSLRAEDTAVYYCARGGEGYGVDHYGLDVSGQGTTVTVSSGGGGSGGGGSGGGGSGGGGSGGGGSGGGGSEVQLVESGGGLVQPGRSLRLSCAASGFTFDDYALHWVRQAPGKDLEWVSGISWNGGSYGYADSVKGRFTISRDNAKNSLYLQMNSLRAEDTALYYCVREKGPGLTGSTADYYGLDAWGQGTMVTVSSGGGGSGGGGSGGGGSGGGGSGGGGSGGGGSEVQLVESGGGLVKPGGSLRLSCAASGFTFSNYNMNWVRQAPGKGLEWVSSISSAGTHIYYADSVKGRFTISRDNAKNSLYLQMNSLRAEDTAVYYCARDPHSTGWYKDFDYWGQGTLVTVSSAAAHHHHHH
notes: Single-chain VH fusion (CD137 VH, PD-1 VH, HSA VH), His tag
As to B1, the results for the EC50 in assay [1], in assay [2] and in assay [3] were 0.0533 nM, 33 nM and 0.15 nM, respectively.

B2: TPP-1247 CD137A-6GS-HSA3-6GS-PD138G7(G109D) (bispecific antibody)
chain: EVQLVESGGGLVQPGGSLRLSCAASGFTLSNYWMNWVRQAPGKGLEWVANINQDGSERYYVDSVKGRFTISRDNAKNSLYLQMNSLRAEDTAVYYCARGGEGYGVDHYGLDVSGQGTTVTVSSGGGGSGGGGSGGGGSGGGGSGGGGSGGGGSEVQLLESGGGLVKPGGSLRLSCAASGFTVSSYTMNWVRQAPGKGLEWVSSISSSGRYIYYADSVKGRFTISRDNAKNSLYLQMNSLRAEDTAVYYCARDPRMVGNPHEFDIWGQGTMVTVSSGGGGSGGGGSGGGGSGGGGSGGGGSGGGGSEVQLVESGGGVVRPGGSLRLSCAASGFTFDDYAMSWVRQAPGKGLEWVSGITWNGGSTGYADSVKDRFTISRDNAKNSLYLQMNSLRAEDTALYYCVRDKYSYAWSYDDFDIWGQGTMVTVSS
As for B2, the Kd (as a rule, the concentration at which binding is half-saturated) was determined as 0.543 nM in assay [4], 16.9 nM in assay [5], 7.77 nM in assay [6] and 0.295 nM in assay [7]. For the same molecule, the koff (usually a measure of how fast the partners let go of each other) came to 0.00017 s⁻¹ in assay [4], 0.00494 s⁻¹ in assay [5], 0.00214 s⁻¹ in [6] and 9.85e-05 s⁻¹ in assay [7]. In addition, the kon (as a rule, the second-order rate constant of association) worked out at 313000 M⁻¹ s⁻¹ in assay [4], 293000 M⁻¹ s⁻¹ in assay [5], 276000 M⁻¹ s⁻¹ in assay [6] and 334000 M⁻¹ s⁻¹ in assay [7]. Also, the “Jurkat-CD137/CHO-PD-1 Reporter Assay EC50” value in assay [8] is 0.0583 nM.

B3: 003BB172-E01-1 (VHH)
VHH: EVQLVESGGGLVQPGGSLRLSCAASGFTFSNYGMHWVRQAPGKGLEWVAVISNDGNTKTYADSVKGRFTISRDNSKNMLYLQMTSLRTEDTAVYYCAQDETTTVTASYYFDYWGQGTLVTVSS
notes: Human VH single domain antibody, monovalent
Regarding B3, in assay [1], the EC50 (commonly the concentration that produces a half-maximal response) stood at 1.35 nM. Also, in assay [9], the Kd was determined as 17.8 nM, the koff was determined as 0.00214 s⁻¹ and the kon stood at 120000 M⁻¹ s⁻¹. In assay [10], the Kd came out at 21.9 nM, the koff was 0.00267 s⁻¹ and the kon stood at 122000 M⁻¹ s⁻¹.

B4: 003BB172-E01-3 (VHH)
VHH: EVQLVESGGGLVQPGGSLRLSCAASGFTFSNYGMHWVRQAPGKRLEWVAVISNDGNTKTYADSVKGRFTISRDNSKNMLYLQMNSLRTEDTAVYYCAQDETTTVTASYYFDYWGQGTLVTVSS
notes: as for B3
As to B4, the midpoint of the response in assay [1], the EC50, lay at 1.06 nM. Further, in assay [9], the Kd amounted to 24.5 nM, the koff is 0.00161 s⁻¹ and the kon was 66000 M⁻¹ s⁻¹. In addition, in assay [10], the Kd is 24.8 nM, the koff amounted to 0.00157 s⁻¹ and the kon is 55300 M⁻¹ s⁻¹.

B5: 003BB172-E01-2 (VHH)
VHH: EVQLVESGGGLVQPGGSLRLSCAASGFTFSNYGMHWVRQAPGKRLEWVAVISNDGNTKTYADSVKGRFTISRDNSKNTLYLQMTSLRTEDTAVYYCAQDETTTVTASYYFDYWGQGTLVTVSS
notes: as for B3
B5: the response in [1] was half-maximal at 1.74 nM (EC50). In assay [9], the Kd worked out at 18.6 nM, the koff was 0.00137 s⁻¹ and the kon was 73200 M⁻¹ s⁻¹. In [10], this molecule yielded a Kd of 25.9 nM, a koff of 0.00159 s⁻¹ and a kon of 61300 M⁻¹ s⁻¹.

B6: 003BB172-E01-4 (VHH)
VHH: EVQLVESGGGLVQPGGSLRLSCAASGFTFSNYGMHWVRQAPGKGLEWVAVISNDGNTKTYADSVKGRFTISRDNSKNTLYLQMTSLRTEDTAVYYCAQDETTTVTASYYFDYWGQGTLVTVSS
notes: as for B3
For the molecule B6, the 50% effective concentration (EC50) in [1] was found to be 1.33 nM. In assay [9], the Kd worked out at 25.7 nM, the off-rate (koff) turned out to be 0.00184 s⁻¹ and the kon is 71600 M⁻¹ s⁻¹. In addition, in assay [10], the Kd was found to be 32.2 nM, the off-rate constant (koff) stood at 0.00216 s⁻¹ and the kon was 67100 M⁻¹ s⁻¹.

B7: TPP-1293 (PDBlocker1.92-6GS- CD137A -6GS-HSA2) (bispecific antibody)
chain: EVQLVESGGGLVKPGGSLRLSCAASGFTFSDESMTWMRQAPGKGLEWVSYISSGGGVKFYADSVKGRFTISRDNAKNSLYLQMNSLRAEDTAVYYCAREAPLRLGESPHDAFDISGQGTMVTVSSGGGGSGGGGSGGGGSGGGGSGGGGSGGGGSEVQLVESGGGLVQPGGSLRLSCAASGFTLSNYWMNWVRQAPGKGLEWVANINQDGSERYYVDSVKGRFTISRDNAKNSLYLQMNSLRAEDTAVYYCARGGEGYGVDHYGLDVSGQGTTVTVSSGGGGSGGGGSGGGGSGGGGSGGGGSGGGGSEVQLVESGGGLVKPGGSLRLSCAASGFTFSNYNMNWVRQAPGKGLEWVSSISSAGTHIYYADSVKGRFTISRDNAKNSLYLQMNSLRAEDTAVYYCARDPHSTGWYKDFDYWGQGTLVTVSS
B7 gave an EC50 in assay [2] of 44.8 nM.

B8: TPP-1245 CD137A-6GS-PDA2-6GS-HSA2 (bispecific antibody)
chain: EVQLVESGGGLVQPGGSLRLSCAASGFTLSNYWMNWVRQAPGKGLEWVANINQDGSERYYVDSVKGRFTISRDNAKNSLYLQMNSLRAEDTAVYYCARGGEGYGVDHYGLDVSGQGTTVTVSSGGGGSGGGGSGGGGSGGGGSGGGGSGGGGSEVQLVESGGGVVRPGGSLRLSCAASGFTFDDYAMSWVRQAPGKGLEWVSGITWNAGSTGYADSVKGRFTISRDNAKNSLYLQMNSLRAEDTALYYCVRDKYSYAWSYDDFDIWGQGTMVTVSSGGGGSGGGGSGGGGSGGGGSGGGGSGGGGSEVQLVESGGGLVKPGGSLRLSCAASGFTFSNYNMNWVRQAPGKGLEWVSSISSAGTHIYYADSVKGRFTISRDNAKNSLYLQMNSLRAEDTAVYYCARDPHSTGWYKDFDYWGQGTLVTVSS
Consider B8, for which the figures for the EC50 in assay [2] and in assay [11] were 183 nM and 4.4 nM, respectively.

B9: TPP-969: PDA-6GS-HSA2-6GS-172E1-13-His (bispecific antibody)
chain: EVQLVESGGGLVQPGRSLRLSCAASGFTFDDYALHWVRQAPGKDLEWVSGISWNGGSYGYADSVKGRFTISRDNAKNSLYLQMNSLRAEDTALYYCVREKGPGLTGSTADYYGLDAWGQGTMVTVSSGGGGSGGGGSGGGGSGGGGSGGGGSGGGGSEVQLVESGGGLVKPGGSLRLSCAASGFTFSNYNMNWVRQAPGKGLEWVSSISSAGTHIYYADSVKGRFTISRDNAKNSLYLQMNSLRAEDTAVYYCARDPHSTGWYKDFDYWGQGTLVTVSSGGGGSGGGGSGGGGSGGGGSGGGGSGGGGSEVQLVESGGGVVQPGGSLRLSCAASGFTFSNYGMHWVRQAPGKGLEWVAVISNDGNTKTYADSVKGRFTISRDNSKNTLYLQMNSLRAEDTAVYYCAQDETTTVTASYYFDYWGQGTLVTVSSAAAHHHHHH
notes: Single-chain VH fusion (PD-1 VH, HSA VH, CD137 VH), His tag
With B9, the EC50 in [1] was 0.171 nM; in assay [3] it was 0.142 nM; in assay [11] it was 11.6 nM.
